The record followed here is patent US20240352110A1 (ROCHE DIAGNOSTICS OPERATIONS, published 2024).

The experiment addresses T1, Aβ42 (human, UniProt P05067 672-713).
T1 construct: range 672-713; In the Elecsys experiments it is the native Aβ42 of the plasma sample; also called Ab42; Abeta42
In words: SPR (Biacore 8K+), antibody captured, Aβ42 injected, 37° C., Langmuir 1:1 fit. The protocol: Measurements were performed using the BIAcore™ 8K+ instruments. Aβ-42 concentration series ranging from 1.2 nM to 900 nM were injected at […]. The association phase was monitored for 3 min, the dissociation phase between 5 min to 10 min at 37° C.
The measurements were performed using PBS-DT+, pH7.4 (10 mM phosphate buffer, 2.7 mM KCl, 137 mM NaCl. 5% DMSO, 0.05% Tween 20) as running buffer.
The kinetic rate constants and the dissociation equilibrium constants KD were calculated using a Langmuir 1:1 fit model according Scrubber Version 2.0.c.
For orientation: SPR reads the build-up and loss of mass on a sensor chip optically.

Broadly, the Kd is the constant that tells how readily two partners part at equilibrium. Read a low Kd as higher affinity. One may read the koff as a measure of how fast the partners let go of each other. A higher koff goes with a short-lived complex. By kon is commonly meant a measure of how fast the partners come together.

T1 sequence (P05067 672-713 limits assumed, form in doubt): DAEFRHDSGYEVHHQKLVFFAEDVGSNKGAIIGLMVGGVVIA

B1: Mouse anti Aβ-42 antibody 3.2.52 (IgG2b), expressed in hybridoma (antibody)
heavy: EVQLQQSGPELVKLGASVRVSCRTSGFTITEYTMHWVKQSHGKSLEWIGGINPITGGSRNNLKFKDKATLTGDKSSSTVYMDLRSLTSEGSTVNYCVRGRTMGPLDYWGQGTTLTVSSAKTTPPSVYPLAPGCGDTTGSSVTLGCLVKGYFPESVTVTWNSGSLSSSVHTFPALLQSGLYTMSSSVTVPSSTWPSQTVTCSVAHPASSTTVDKKLEPSGPISTINPCPPCKECHKCPAPNLEGGPSVFIFPPNIKDVLMISLTPKVTCVVVDVSEDDPDVRISWFVNNVEVHTAQTQTHREDYNSTIRVVSALPIQHQDWMSGKEFKCKVNNKDLPSPIERTISKIKGLVRAPQVYILPPPAEQLSRKDVSLTCLVVGFNPGDISVEWTSNGHTEENYKDTAPVLDSDGSYFIYSKLDIKTSKWEKTDSFSCNVRHEGLKNYYLKKTISRSPGK
light: not shown
notes: Full-length mouse IgG2b; Biotinylated when used as capture antibody in Elecsys assays; also called M-3.2.52; clone 3.2.52
With B1, binding was put at a Kd of 6.7 nM, the “MR (molar ratio)” value worked out at 0.7, the koff amounted to 0.0253 s⁻¹ and the kon was determined as 3.8e+06 M⁻¹ s⁻¹. Besides, the “t/2 diss (complex half-life)” value is below 1 min.
